From paper PMC3627597
Where two headings read alike, the source gives them in different places.

What was measured:
[1] = biological target: T1, BAFF-R (B-cell activating factor receptor) (human, UniProt Q96RJ3 1-76); test: EMSA
T1 sequence: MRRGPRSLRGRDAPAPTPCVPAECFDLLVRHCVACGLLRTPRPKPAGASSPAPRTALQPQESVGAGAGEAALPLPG

[2] = biological target: BCMA (TNFRSF17) (human, UniProt Q02223 1-54); test: EMSA
[3] = biological target: T1, BAFF-R (B-cell activating factor …); test: filter binding
[4] = biological target: T1, BAFF-R (B-cell activating factor …); test: EMSA; remark: listed apart in the source

BCMA (TNFRSF17), sequence (Q02223 1-54): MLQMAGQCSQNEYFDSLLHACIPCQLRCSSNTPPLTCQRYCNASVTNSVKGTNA

B1: R-1 aptamer (structured_RNA)
RNA: GGGAGGACGAUGCGGGAGGCUCAACAAUGAUAGAGCCCGCAAUGUUGAUAGUUGUGCCCAGUCUGCAGACGACUCGCCCGA
modifications: 2'-F U and C
Question: How did the Kd [1] turn out when B1 was run?
Answer: ~47 nM

Question: Does B1 bind [2]?
Answer: no binding

Question: And the binding signal [3]?
Answer: > 36 % RNA retained

Question: And the Kd [4]?
Answer: 54 nM

B2: R-14 aptamer (structured_RNA)
RNA: GGGAGGACGAUGCGGAUAACUAUUGUGCUAGAGGGCUUAUUUAUGUGAGCCGGUUGAUAGUUGCGCAGACGACUCGCCCGA
modifications: 2'-F U and C
Question: What does the source list for B2?
Answer: Kd [1]: ~96 nM; binding signal [3]: > 36 % RNA retained

B3: R-1-STAT3 27-mer OVH chimera (structured_RNA)
RNA 1: GGGAGGACGAUGCGGGAGGCUCAACAAUGAUAGAGCCCGCAAUGUUGAUAGUUGUGCCCAGUCUGCAGACGACUCGCCCGAUUUUUUUUGAGAACGGAAGCUGCAGAAAGAUACGA
RNA 2: GUAUCUUUCUGCAGCUUCCGUUCUC
modifications: 2'-F U and C in aptamer-sense strand
Question: How did the Kd [1] turn out when B3 was run?
Answer: 35 nM

B4: R-22 aptamer (structured_RNA)
RNA: GGGAGGACGAUGCGGAUCCUCCGAAGGUCGCGCCAACGUCACACAUUAAGCUUUUGUUCGUCUGCAGACGACUCGCCCGA
modifications: 2'-F U and C
Question: For B4, which binding signal [3] is on record?
Answer: 3.6 % RNA retained

B5: R-1-STAT3 27-mer SWAP chimera (structured_RNA)
RNA 1: GGGAGGACGAUGCGGGAGGCUCAACAAUGAUAGAGCCCGCAAUGUUGAUAGUUGUGCCCAGUCUGCAGACGACUGCCCGAUUUUUUUUUCAGUCGUAUCUUUCUGCAGCUUCCGU
RNA 2: GGAAGCUGCAGAAAGAUACGACUGA
modifications: 2'-F U and C in aptamer-antisense strand; S7 3' ga are DNA
Question: B5 was tested. Which Kd [1] did it give?
Answer: 56 nM
